Experimental data published in patent US20150344570A1 (published 2015).

Experiments:
FcγRIa = target: T1, FcγRIa (human, UniProt P12314 16-292); assay: SPR (Biacore); Ho Ab relative to HoCon Ab = 100
T1 construct: extracellular domain; also called FcgRI; 1a
Description: Analysis of interaction between objective antibody and the FcγR was carried out using Biacore T100 (GE Healthcare). HBS-EP+ (GE Healthcare) was used as the running buffer, and the measurement temperature was set to 25° C. Chips produced by immobilizing the antigen peptide by the amine coupling method to a Series S Sencor Chip CM5 (GE Healthcare), or alternatively, chips produced by allowing preliminarily biotinylated antigen peptides to interact with and immobilize onto a Series S Sensor Chip SA (certified) (GE Healthcare) were used. Antibodies of interest were captured onto an antigen peptide-immobilized chip, and allowed to interact to each FcγR diluted with running buffer. To regenerate and repeatedly use the chip, the antibodies captured on the chip were washed off by reacting 10 mM glycine-HCl, pH 1.5.

[1] = target: T2, FcγRIIIa extracellular domain with C-terminal His tag (human, UniProt P08637 17-208); assay: SPR Biacore, captured antibody, FcγR analyte, relative binding
T2 construct: extracellular domain; also called FcgRIIIa; 3a; not shown: His tag attached to the C terminus
T2 sequence (P08637 17-208): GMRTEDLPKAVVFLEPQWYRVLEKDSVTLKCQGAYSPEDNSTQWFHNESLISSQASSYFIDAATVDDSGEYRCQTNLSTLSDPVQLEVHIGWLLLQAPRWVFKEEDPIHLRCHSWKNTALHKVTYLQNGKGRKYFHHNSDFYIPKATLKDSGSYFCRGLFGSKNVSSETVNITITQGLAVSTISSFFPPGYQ
How it was run: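 SPR, 25° C, HBS-EP+; Ab captured via immobilized antigen peptide (CM5 amine coupling or SA/biotin); FcγR in running buffer as analyte; regen 10 mM glycine-HCl pH 1.5.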

T1 sequence (P12314 16-292): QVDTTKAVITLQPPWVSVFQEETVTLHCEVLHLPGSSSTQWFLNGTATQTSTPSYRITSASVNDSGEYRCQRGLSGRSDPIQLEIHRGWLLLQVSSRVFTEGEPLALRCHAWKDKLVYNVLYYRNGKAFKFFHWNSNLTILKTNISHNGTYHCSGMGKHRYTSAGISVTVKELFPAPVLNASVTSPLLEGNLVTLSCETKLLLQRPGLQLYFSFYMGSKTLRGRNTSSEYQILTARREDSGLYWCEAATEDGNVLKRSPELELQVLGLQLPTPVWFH

B1: GpH7-B3 variant E269_01G/GpL16-k0 (antibody, human IgG1, kappa)
heavy: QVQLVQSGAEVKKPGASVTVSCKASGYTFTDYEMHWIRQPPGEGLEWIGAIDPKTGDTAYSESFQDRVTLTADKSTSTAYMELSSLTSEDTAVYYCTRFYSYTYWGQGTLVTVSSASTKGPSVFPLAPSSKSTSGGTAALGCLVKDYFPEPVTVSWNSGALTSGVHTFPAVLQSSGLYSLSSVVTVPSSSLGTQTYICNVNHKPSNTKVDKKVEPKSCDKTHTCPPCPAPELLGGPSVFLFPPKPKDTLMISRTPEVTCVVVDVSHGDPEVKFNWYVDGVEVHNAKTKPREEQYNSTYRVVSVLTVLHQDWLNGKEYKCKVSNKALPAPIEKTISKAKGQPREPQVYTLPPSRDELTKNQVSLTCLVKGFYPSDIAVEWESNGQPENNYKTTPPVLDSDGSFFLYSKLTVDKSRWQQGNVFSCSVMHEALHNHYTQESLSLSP
light: DIVMTQSPLSLPVTPGEPASISCQASESLVHSNRNTYLHWYLQKPGQSPQLLIYKVSNRFSGVPDRFSGSGSGTDFTLKISRVEAEDVGVYYCSQNTHVPPTFGQGTKVEIERTVAAPSVFIFPPSDEQLKSGTASVVCLLNNFYPREAKVQWKVDNALQSGNSQESVTEQDSKDSTYSLSSTLTLSKADYEKHKVYACEVTHQGLSSPVTKSFNRGEC
notes: also called Ho Ab E269_01G
- Ho/Con_1a (FcγRIa): 97.4 % of control

B2: GpH7-B3 variant A330_14T/GpL16-k0 (antibody, human IgG1, kappa)
heavy: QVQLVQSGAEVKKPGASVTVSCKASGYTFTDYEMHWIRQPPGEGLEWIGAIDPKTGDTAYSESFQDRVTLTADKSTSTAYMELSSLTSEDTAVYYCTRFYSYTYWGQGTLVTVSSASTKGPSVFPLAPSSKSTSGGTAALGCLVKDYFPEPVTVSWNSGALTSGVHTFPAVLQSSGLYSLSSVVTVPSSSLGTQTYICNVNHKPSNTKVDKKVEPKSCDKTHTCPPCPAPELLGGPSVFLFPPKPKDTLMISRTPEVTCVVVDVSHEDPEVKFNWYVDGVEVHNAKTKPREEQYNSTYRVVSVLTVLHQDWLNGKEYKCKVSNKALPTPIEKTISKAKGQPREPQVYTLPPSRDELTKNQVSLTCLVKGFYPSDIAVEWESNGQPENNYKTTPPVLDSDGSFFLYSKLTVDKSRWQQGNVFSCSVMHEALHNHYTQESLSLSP
light: B1 light
notes: also called Ho Ab A330_14T
- Ho/Con_1a (FcγRIa): 105 % of control

B3: GpH7-A5/GpH7-B3 variant K334_02A/GpL16-k0 (antibody, human IgG1, kappa)
heavy 1: not shown
heavy 2: not shown
light: B1 light
notes: also called He Ab K334_02A
- He/Con_3a [1]: 147 % of HeCon Ab GpH7-A5/GpH7-B3/GpL16-k0 (=100)

B4: GpH7-B3 variant E269_03V/GpL16-k0 (antibody, human IgG1, kappa)
heavy: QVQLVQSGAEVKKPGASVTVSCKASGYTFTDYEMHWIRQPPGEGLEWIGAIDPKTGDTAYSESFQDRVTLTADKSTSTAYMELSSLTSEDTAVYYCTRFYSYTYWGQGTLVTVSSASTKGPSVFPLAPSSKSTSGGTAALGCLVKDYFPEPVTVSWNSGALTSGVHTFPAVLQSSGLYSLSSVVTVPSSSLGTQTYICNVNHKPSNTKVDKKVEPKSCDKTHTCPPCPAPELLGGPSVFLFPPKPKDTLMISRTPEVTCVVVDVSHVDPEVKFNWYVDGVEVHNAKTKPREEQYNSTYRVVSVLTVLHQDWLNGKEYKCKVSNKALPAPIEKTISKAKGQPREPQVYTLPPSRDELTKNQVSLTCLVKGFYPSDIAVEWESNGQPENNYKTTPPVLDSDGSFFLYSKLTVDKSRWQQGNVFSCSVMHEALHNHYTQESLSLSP
light: B1 light
notes: also called Ho Ab E269_03V
- Ho/Con_1a (FcγRIa): 95.4 % of control

B5: GpH7-A5/GpH7-B3 variant K334_09D/GpL16-k0 (antibody, human IgG1, kappa)
heavy 1: not shown
heavy 2: not shown
light: B1 light
notes: also called He Ab K334_09D
- He/Con_3a [1]: 160 % of HeCon Ab GpH7-A5/GpH7-B3/GpL16-k0 (=100)

B6: GpH7-A5/GpH7-B3 variant K326_15Y/GpL16-k0 (antibody, human IgG1, kappa)
heavy 1: not shown
heavy 2: not shown
light: B1 light
notes: also called He Ab K326_15Y
- He/Con_3a [1]: 112 % of HeCon Ab GpH7-A5/GpH7-B3/GpL16-k0 (=100)

B7: GpH7-A5/GpH7-B3 variant K334_05P/GpL16-k0 (antibody, human IgG1, kappa)
heavy 1: not shown
heavy 2: not shown
light: B1 light
notes: also called He Ab K334_05P
- He/Con_3a [1]: 134 % of HeCon Ab GpH7-A5/GpH7-B3/GpL16-k0 (=100)

B8: GpH7-B3 variant A330_16H/GpL16-k0 (antibody, human IgG1, kappa)
heavy: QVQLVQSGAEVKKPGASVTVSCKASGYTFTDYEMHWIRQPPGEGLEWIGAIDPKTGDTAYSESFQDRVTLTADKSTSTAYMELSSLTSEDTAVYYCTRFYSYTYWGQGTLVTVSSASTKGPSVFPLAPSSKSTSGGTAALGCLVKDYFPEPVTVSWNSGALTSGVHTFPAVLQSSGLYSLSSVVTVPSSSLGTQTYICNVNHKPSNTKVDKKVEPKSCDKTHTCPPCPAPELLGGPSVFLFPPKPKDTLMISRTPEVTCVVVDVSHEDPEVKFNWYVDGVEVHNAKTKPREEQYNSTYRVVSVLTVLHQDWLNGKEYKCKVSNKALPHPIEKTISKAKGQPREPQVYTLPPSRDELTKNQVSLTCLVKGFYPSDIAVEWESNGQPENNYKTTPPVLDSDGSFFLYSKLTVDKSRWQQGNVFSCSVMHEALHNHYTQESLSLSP
light: B1 light
notes: also called Ho Ab A330_16H
- Ho/Con_1a (FcγRIa): 104 % of control

B9: GpH7-A5/GpH7-B3 variant K326_08L/GpL16-k0 (antibody, human IgG1, kappa)
heavy 1: not shown
heavy 2: not shown
light: B1 light
notes: also called He Ab K326_08L
- He/Con_3a [1]: 114 % of HeCon Ab GpH7-A5/GpH7-B3/GpL16-k0 (=100)

B10: GpH7-A5/GpH7-B3 variant S298_14T/GpL16-k0 (antibody, human IgG1, kappa)
heavy 1: not shown
heavy 2: not shown
light: B1 light
notes: also called He Ab S298_14T
- He/Con_3a [1]: 113 % of HeCon Ab GpH7-A5/GpH7-B3/GpL16-k0 (=100)

B11: GpH7-A5/GpH7-B3 variant I336_14T/GpL16-k0 (antibody, human IgG1, kappa)
heavy 1: not shown
heavy 2: not shown
light: B1 light
notes: also called He Ab I336_14T
- He/Con_3a [1]: 108 % of HeCon Ab GpH7-A5/GpH7-B3/GpL16-k0 (=100)

B12: GpH7-A5/GpH7-B3 variant K326_04F/GpL16-k0 (antibody, human IgG1, kappa)
heavy 1: not shown
heavy 2: not shown
light: B1 light
notes: also called He Ab K326_04F
- He/Con_3a [1]: 103 % of HeCon Ab GpH7-A5/GpH7-B3/GpL16-k0 (=100)

B13: GpH7-A5/GpH7-B3 variant Q295_02A/GpL16-k0 (antibody, human IgG1, kappa)
heavy 1: not shown
heavy 2: not shown
light: B1 light
notes: also called He Ab Q295_02A
- He/Con_3a [1]: 106 % of HeCon Ab GpH7-A5/GpH7-B3/GpL16-k0 (=100)

B14: GpH7-A5/GpH7-B3 variant K326_14T/GpL16-k0 (antibody, human IgG1, kappa)
heavy 1: not shown
heavy 2: not shown
light: B1 light
notes: also called He Ab K326_14T
- He/Con_3a [1]: 126 % of HeCon Ab GpH7-A5/GpH7-B3/GpL16-k0 (=100)

B15: GpH7-A5/GpH7-B3 variant Q295_14T/GpL16-k0 (antibody, human IgG1, kappa)
heavy 1: not shown
heavy 2: not shown
light: B1 light
notes: also called He Ab Q295_14T
- He/Con_3a [1]: 115 % of HeCon Ab GpH7-A5/GpH7-B3/GpL16-k0 (=100)

B16: GpH7-A5/GpH7-B3 variant Q295_10E/GpL16-k0 (antibody, human IgG1, kappa)
heavy 1: not shown
heavy 2: not shown
light: B1 light
notes: also called He Ab Q295_10E
- He/Con_3a [1]: 100 % of HeCon Ab GpH7-A5/GpH7-B3/GpL16-k0 (=100)

B17: GpH7-A5/GpH7-B3 variant K334_13S/GpL16-k0 (antibody, human IgG1, kappa)
heavy 1: not shown
heavy 2: not shown
light: B1 light
notes: also called He Ab K334_13S
- He/Con_3a [1]: 145 % of HeCon Ab GpH7-A5/GpH7-B3/GpL16-k0 (=100)

B18: GpH7-B3 variant E269_02A/GpL16-k0 (antibody, human IgG1, kappa)
heavy: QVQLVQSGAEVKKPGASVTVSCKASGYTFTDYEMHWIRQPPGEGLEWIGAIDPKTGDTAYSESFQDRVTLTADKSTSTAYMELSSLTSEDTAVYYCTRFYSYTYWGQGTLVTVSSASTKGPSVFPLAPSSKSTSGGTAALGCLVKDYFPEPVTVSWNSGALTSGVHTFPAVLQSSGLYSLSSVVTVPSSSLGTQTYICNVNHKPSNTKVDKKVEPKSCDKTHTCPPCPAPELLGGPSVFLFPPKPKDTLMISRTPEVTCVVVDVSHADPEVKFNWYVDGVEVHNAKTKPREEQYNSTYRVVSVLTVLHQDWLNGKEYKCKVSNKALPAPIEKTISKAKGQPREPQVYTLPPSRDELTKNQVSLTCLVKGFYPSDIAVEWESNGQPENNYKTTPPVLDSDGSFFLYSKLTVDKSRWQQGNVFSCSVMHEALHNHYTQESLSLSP
light: B1 light
notes: also called Ho Ab E269_02A
- Ho/Con_1a (FcγRIa): 96.2 % of control

B19: GpH7-B3 variant A330_08L/GpL16-k0 (antibody, human IgG1, kappa)
heavy: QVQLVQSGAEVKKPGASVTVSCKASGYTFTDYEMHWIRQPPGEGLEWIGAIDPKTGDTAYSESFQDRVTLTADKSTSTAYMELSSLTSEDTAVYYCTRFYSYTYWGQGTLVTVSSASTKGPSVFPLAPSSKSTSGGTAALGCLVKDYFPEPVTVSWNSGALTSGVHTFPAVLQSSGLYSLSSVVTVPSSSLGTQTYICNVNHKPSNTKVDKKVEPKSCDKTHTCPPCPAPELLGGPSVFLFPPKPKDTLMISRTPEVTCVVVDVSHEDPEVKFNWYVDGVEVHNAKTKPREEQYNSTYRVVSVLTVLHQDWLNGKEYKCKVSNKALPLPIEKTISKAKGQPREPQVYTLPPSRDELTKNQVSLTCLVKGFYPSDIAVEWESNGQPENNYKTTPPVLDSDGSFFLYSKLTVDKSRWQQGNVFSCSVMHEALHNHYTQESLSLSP
light: B1 light
notes: also called Ho Ab A330_08L
- Ho/Con_1a (FcγRIa): 106 % of control

B20: GpH7-A5/GpH7-B3 variant S337_09D/GpL16-k0 (antibody, human IgG1, kappa)
heavy 1: not shown
heavy 2: not shown
light: B1 light
notes: also called He Ab S337_09D
- He/Con_3a [1]: 110 % of HeCon Ab GpH7-A5/GpH7-B3/GpL16-k0 (=100)

B21: GpH7-A5/GpH7-B3 variant S337_18N/GpL16-k0 (antibody, human IgG1, kappa)
heavy 1: not shown
heavy 2: not shown
light: B1 light
notes: also called He Ab S337_18N
- He/Con_3a [1]: 104 % of HeCon Ab GpH7-A5/GpH7-B3/GpL16-k0 (=100)

B22: GpH7-A5/GpH7-B3 variant T335_07I/GpL16-k0 (antibody, human IgG1, kappa)
heavy 1: not shown
heavy 2: not shown
light: B1 light
notes: also called He Ab T335_07I
- He/Con_3a [1]: 107 % of HeCon Ab GpH7-A5/GpH7-B3/GpL16-k0 (=100)

B23: GpH7-A5/GpH7-B3 variant K326_19Q/GpL16-k0 (antibody, human IgG1, kappa)
heavy 1: not shown
heavy 2: not shown
light: B1 light
notes: also called He Ab K326_19Q
- He/Con_3a [1]: 106 % of HeCon Ab GpH7-A5/GpH7-B3/GpL16-k0 (=100)

B24: GpH7-B3 variant E269_04F/GpL16-k0 (antibody, human IgG1, kappa)
heavy: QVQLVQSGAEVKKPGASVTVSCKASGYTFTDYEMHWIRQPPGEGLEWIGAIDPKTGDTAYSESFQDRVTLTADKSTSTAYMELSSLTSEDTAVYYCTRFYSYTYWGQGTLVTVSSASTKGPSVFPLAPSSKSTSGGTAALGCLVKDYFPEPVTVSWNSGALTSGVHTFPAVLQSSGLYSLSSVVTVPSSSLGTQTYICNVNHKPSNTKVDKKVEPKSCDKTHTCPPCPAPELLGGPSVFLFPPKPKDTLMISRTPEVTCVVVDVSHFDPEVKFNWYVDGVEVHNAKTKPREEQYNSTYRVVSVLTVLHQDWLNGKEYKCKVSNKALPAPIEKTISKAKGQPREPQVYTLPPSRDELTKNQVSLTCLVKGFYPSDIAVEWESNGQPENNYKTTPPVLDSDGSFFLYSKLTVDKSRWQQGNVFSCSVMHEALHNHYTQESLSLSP
light: B1 light
notes: also called Ho Ab E269_04F
- Ho/Con_1a (FcγRIa): 102 % of control

B25: GpH7-A5/GpH7-B3 variant K334_14T/GpL16-k0 (antibody, human IgG1, kappa)
heavy 1: not shown
heavy 2: not shown
light: B1 light
notes: also called He Ab K334_14T
- He/Con_3a [1]: 141 % of HeCon Ab GpH7-A5/GpH7-B3/GpL16-k0 (=100)

B26: GpH7-B3 variant A330_09D/GpL16-k0 (antibody, human IgG1, kappa)
heavy: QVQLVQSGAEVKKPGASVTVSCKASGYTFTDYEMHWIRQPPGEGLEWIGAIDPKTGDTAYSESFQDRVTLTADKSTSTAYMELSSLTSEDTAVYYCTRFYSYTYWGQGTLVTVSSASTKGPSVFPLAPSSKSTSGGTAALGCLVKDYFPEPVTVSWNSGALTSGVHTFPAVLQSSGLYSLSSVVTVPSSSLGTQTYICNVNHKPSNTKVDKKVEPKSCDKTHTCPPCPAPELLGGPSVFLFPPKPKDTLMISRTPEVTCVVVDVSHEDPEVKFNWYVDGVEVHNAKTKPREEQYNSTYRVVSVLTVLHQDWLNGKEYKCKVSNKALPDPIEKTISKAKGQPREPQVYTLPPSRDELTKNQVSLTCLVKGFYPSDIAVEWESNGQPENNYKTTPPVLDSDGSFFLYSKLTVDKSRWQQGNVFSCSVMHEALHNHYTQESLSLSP
light: B1 light
notes: also called Ho Ab A330_09D
- Ho/Con_1a (FcγRIa): 108 % of control

B27: GpH7-A5/GpH7-B3 variant K326_03V/GpL16-k0 (antibody, human IgG1, kappa)
heavy 1: not shown
heavy 2: not shown
light: B1 light
notes: also called He Ab K326_03V
- He/Con_3a [1]: 122 % of HeCon Ab GpH7-A5/GpH7-B3/GpL16-k0 (=100)
